Key:
[1] = target: T1, Ala mutant SEQ ID NO: 27 (human); assay: ELISA, peptide on plate (10 ug/mL)
T1 sequence (peptide): AENMDDQWMQDEMEIGY

[2] = target: T2, Ala mutant SEQ ID NO: 28 (human); assay: ELISA, peptide on plate (10 ug/mL)
T2 sequence (peptide): EANMDDQWMQDEMEIGY

[3] = target: T3, Ala mutant SEQ ID NO: 29 (human); assay: ELISA, peptide on plate (10 ug/mL)
T3 sequence (peptide): EEAMDDQWMQDEMEIGY

[4] = target: T4, Ala mutant SEQ ID NO: 30 (human); assay: ELISA, peptide on plate (10 ug/mL)
T4 sequence (peptide): EENADDQWMQDEMEIGY

[5] = target: T5, Ala mutant SEQ ID NO: 31 (human); assay: ELISA, peptide on plate (10 ug/mL)
T5 sequence (peptide): EENMADQWMQDEMEIGY

[6] = target: T6, Ala mutant SEQ ID NO: 33 (human); assay: ELISA, peptide on plate (10 ug/mL)
T6 sequence (peptide): EENMDDAWMQDEMEIGY

[7] = target: T7, Ala mutant SEQ ID NO: 36 (human); assay: ELISA, peptide on plate (10 ug/mL)
T7 sequence (peptide): EENMDDQWMADEMEIGY

[8] = target: T8, Ala mutant SEQ ID NO: 37 (human); assay: ELISA, peptide on plate (10 ug/mL)
T8 sequence (peptide): EENMDDQWMQAEMEIGY

[9] = target: T9, Ala mutant SEQ ID NO: 38 (human); assay: ELISA, peptide on plate (10 ug/mL)
T9 sequence (peptide): EENMDDQWMQDAMEIGY

[10] = target: T10, Ala mutant SEQ ID NO: 39 (human); assay: ELISA, peptide on plate (10 ug/mL)
T10 sequence (peptide): EENMDDQWMQDEAEIGY

[11] = target: T11, Ala mutant SEQ ID NO: 40 (human); assay: ELISA, peptide on plate (10 ug/mL)
T11 sequence (peptide): EENMDDQWMQDEMAIGY

[12] = target: T12, Ala mutant SEQ ID NO: 41 (human); assay: ELISA, peptide on plate (10 ug/mL)
T12 sequence (peptide): EENMDDQWMQDEMEAGY

[13] = target: T13, Ala mutant SEQ ID NO: 42 (human); assay: ELISA, peptide on plate (10 ug/mL)
T13 sequence (peptide): EENMDDQWMQDEMEIAY

[14] = target: T14, Ala mutant SEQ ID NO: 43 (human); assay: ELISA, peptide on plate (10 ug/mL)
T14 sequence (peptide): EENMDDQWMQDEMEIGA

[15] = target: T15, Ala mutant having 3-amino acid substitution, SEQ ID NO: 44 (human); assay: ELISA, peptide on plate (10 ug/mL)
T15 sequence (peptide): AAAMDDQWMQDEMEIGY

[16] = target: T16, Ala mutant having 3-amino acid substitution, SEQ ID NO: 46 (human); assay: ELISA, peptide on plate (10 ug/mL)
T16 sequence (peptide): EENMDDAAAQDEMEIGY

[17] = target: T17, Ala mutant having 3-amino acid substitution, SEQ ID NO: 47 (human); assay: ELISA, peptide on plate (10 ug/mL)
T17 sequence (peptide): EENMDDQWMAAAMEIGY

[18] = target: T18, Ala mutant having 3-amino acid substitution, SEQ ID NO: 48 (human); assay: ELISA, peptide on plate (10 ug/mL)
T18 sequence (peptide): EENMDDQWMQDEAAAGY

[19] = target: T19, Ala mutant having 3-amino acid substitution, SEQ ID NO: 49 (human); assay: ELISA, peptide on plate (10 ug/mL)
T19 sequence (peptide): EENMDDQWMQDEMEIAA

[20] = target: T20, TA0096 (peptide antigen corresponding to positions 340 to 356 of PAD4) (human); assay: ELISA, peptide on plate (10 ug/mL)
T20 sequence (peptide): EENMDDQWMQDEMEIGY

[21] = target: full-length recombinant mouse PAD4 (mouse) (UniProt Q9Z183); assay: ELISA, mouse PAD4 on plate, antibody 1 ug/mL
[22] = target: full-length recombinant mouse PAD4 (mouse) (UniProt Q9Z183); assay: ELISA, mouse PAD4 on plate, antibody 0.25 ug/mL
[23] = target: full-length recombinant mouse PAD4 (mouse) (UniProt Q9Z183); assay: ELISA, mouse PAD4 on plate, antibody 0.0625 ug/mL
[24] = target: full-length recombinant mouse PAD4 (mouse) (UniProt Q9Z183); assay: ELISA, mouse PAD4 on plate, antibody 0.015625 ug/mL
[25] = target: full-length recombinant mouse PAD4 (mouse) (UniProt Q9Z183); assay: ELISA, mouse PAD4 on plate, antibody 0.0002441 ug/mL
[26] = target: full-length recombinant mouse PAD4 (mouse) (UniProt Q9Z183); assay: ELISA, mouse PAD4 on plate, antibody 0.0009766 ug/mL
[27] = target: full-length recombinant mouse PAD4 (mouse) (UniProt Q9Z183); assay: ELISA, mouse PAD4 on plate, antibody 0.0039063 ug/mL
[28] = target: full-length recombinant mouse PAD4 (mouse) (UniProt Q9Z183); assay: ELISA, mouse PAD4 on plate, antibody 6.104E-05 ug/mL

full-length recombinant mouse PAD4 (mouse), sequence (Q9Z183 whole entry): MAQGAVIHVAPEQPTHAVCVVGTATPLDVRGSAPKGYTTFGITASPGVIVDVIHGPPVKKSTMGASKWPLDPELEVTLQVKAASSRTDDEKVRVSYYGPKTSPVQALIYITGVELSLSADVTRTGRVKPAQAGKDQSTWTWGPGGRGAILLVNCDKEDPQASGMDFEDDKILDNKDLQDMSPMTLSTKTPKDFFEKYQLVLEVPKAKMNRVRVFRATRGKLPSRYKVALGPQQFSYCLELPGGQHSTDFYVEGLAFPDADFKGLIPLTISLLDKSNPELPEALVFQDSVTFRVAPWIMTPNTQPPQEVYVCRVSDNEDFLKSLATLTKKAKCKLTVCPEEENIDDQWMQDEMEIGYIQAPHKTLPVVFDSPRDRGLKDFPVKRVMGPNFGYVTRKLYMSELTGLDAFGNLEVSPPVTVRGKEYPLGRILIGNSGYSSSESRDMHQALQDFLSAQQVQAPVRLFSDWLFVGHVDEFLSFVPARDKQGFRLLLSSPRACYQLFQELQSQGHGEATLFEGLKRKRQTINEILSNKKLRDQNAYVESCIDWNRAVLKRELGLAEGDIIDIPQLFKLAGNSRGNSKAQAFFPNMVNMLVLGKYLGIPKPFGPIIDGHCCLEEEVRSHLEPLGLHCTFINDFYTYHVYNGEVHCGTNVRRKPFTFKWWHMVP

absorbance 490 nm/630 nm [1]: 1.93 OD
absorbance 490 nm/630 nm [2]: 1.96 OD
absorbance 490 nm/630 nm [3]: 1.94 OD
absorbance 490 nm/630 nm [4]: 2.03 OD
absorbance 490 nm/630 nm [5]: 1.48 OD
absorbance 490 nm/630 nm [6]: 1.98 OD
absorbance 490 nm/630 nm [7]: 1.87 OD
absorbance 490 nm/630 nm [8]: 1.88 OD
absorbance 490 nm/630 nm [9]: 1.96 OD
absorbance 490 nm/630 nm [10]: 1.87 OD
absorbance 490 nm/630 nm [11]: 1.88 OD
absorbance 490 nm/630 nm [12]: 1.89 OD
absorbance 490 nm/630 nm [13]: 1.85 OD
absorbance 490 nm/630 nm [14]: 1.88 OD
absorbance 490 nm/630 nm [15]: 1.92 OD
absorbance 490 nm/630 nm [16]: 0.131 OD
absorbance 490 nm/630 nm [17]: 1.85 OD
absorbance 490 nm/630 nm [18]: 1.89 OD
absorbance 490 nm/630 nm [19]: 1.92 OD
absorbance 490 nm/630 nm [20]: 1.85 OD
absorbance 490 nm/630 nm [21]: 2.3 OD
absorbance 490 nm/630 nm [22]: 2.25 OD
absorbance 490 nm/630 nm [23]: 2.24 OD
absorbance 490 nm/630 nm [24]: 2.21 OD
absorbance 490 nm/630 nm [25]: 0.181 OD
absorbance 490 nm/630 nm [26]: 0.542 OD
absorbance 490 nm/630 nm [27]: 1.39 OD
absorbance 490 nm/630 nm [28]: 0.079 OD
B1: G9 (antibody, IgG1, V domains shown)
VH: AVTLDESGGGLQTPGGALSLVCKASGFTFSTYAMGWMRQAPGKGLEYVAAIRNDGSWTGYGAAVKGRATILRDNGQSTVRLQLSNLRAEDTGTYYCAKYTGSSGGSIGAWGHGTEVIVS
VL: AVTQPASVSANLGGTVEITCSGGGRYYYGWYQQKSPGSAPVTVIYANDKRPSDIPSRFSGSKSGSTGTLTITGVQAEDEAVYFCGSAETSSYVFGAGTTLTVL

Source: patent US20230192890A1
